Values joined by “and” are separate entries in the source; they are usually repeats but may differ in a detail not shown here. Identical values can stand only once.

Consider two substances from publication PMC4526809.

Experiment [1] concerns the target His6-tagged B. cereus C-SpoIISA (pETDuetCIISA Bc; pETDuetCIISAB Bc) (Bacillus cereus ATCC 14579) (UniProt Q81DD1). The experiment can be described thus: cross-linking; 80 μg Ni-purified His6-C-SpoIISA with glutaraldehyde (5 μl of 2.3% in 100 μl), 30 min, 37°C; 12% SDS-PAGE and Western blot.
The target in experiment [2] is untagged B. cereus C-SpoIISA (Bacillus cereus ATCC 14579) (UniProt Q81DD1). Put plainly: SEC; purified untagged C-SpoIISA on Superose 6 10/300 GL, 0.4 ml/min, absorbance at 280 nm. A general note: Size exclusion chromatography separates by hydrodynamic size, large species first.

“His6-tagged B. cereus C-SpoIISA (pETDuetCIISA Bc; pETDuetCIISAB Bc) (from UniProt Q81DD1 1-245) (domain or fragment)”: in experiment [1], the stoichiometry N was 2 and 3.
Regarding “untagged B. cereus C-SpoIISA (from UniProt Q81DD1 1-245) (domain or fragment)”, in experiment [2], the stoichiometry N is 2 and 3.

The stoichiometry N is the number of molecules, sites or subunits per partner or assembly.
